According to US7772181B2, “Personal care compositions comprising modified variant Bowman Birk Protease Inhibitors” (Danisco US Inc., priority 2008, dated 2010):
Marks after values point to notes of the source that are not given here.

T1: bovine pancreatic trypsin (Bos taurus, UniProt P00760)
T1 construct: purchased Worthington (Worthington Biochemical Corp.)
T1 sequence (P00760 24-246): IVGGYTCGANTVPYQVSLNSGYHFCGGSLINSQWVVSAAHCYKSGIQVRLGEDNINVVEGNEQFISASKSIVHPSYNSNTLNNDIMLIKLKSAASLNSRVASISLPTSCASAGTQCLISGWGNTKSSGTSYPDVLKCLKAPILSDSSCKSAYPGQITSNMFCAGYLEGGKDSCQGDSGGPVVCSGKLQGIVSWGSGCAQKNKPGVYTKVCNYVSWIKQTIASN


What follows are molecules tested against T1, bovine pancreatic trypsin (assay: BBIt-AV:BCE activity ratio, microtiter plate screens (primary, quadruplicate secondary)). Settings: after activation with reducing agent (2-mercaptoethanol).
Format: biochemical
Protocol: The cultures in each master plate were thawed and a pin replicator was used to inoculate a new sterile microtiter plate containing 150 μl of Luria broth with 5 μg/ml chloramphenicol in each well. The plates were grown for ˜10 hrs in a humidified and aerated box as described above. For controls, the cultures in two wells were replaced with BBI and BBI-AV cultures that had been grown concurrently in 15 ml culture tubes (5 ml of Luria broth with 5 μg/ml chloramphenicol). After the cultures were grown, the plate was used to inoculate two duplicate 96-well filter plates (Millipore, MSGV2210) containing 150 μl of MBD medium (Vogtentanz et al., 2007) with 5 μg/ml chloramphenicol in each well by using a pin replicator. The duplicate plates were grown for ˜14 hours (as above, with plastic spacers placed between the stacked plates to allow for efficient air flow around the plates) and then 2-mecaptoethanol was added to each well in one of the plates to a final concentration of 2 mM. The plates were then grown for an additional ˜46 hours. The 96-well filter plates containing the culture broth (with or without added 2-mecaptoethanol) were then assayed for BBI and BCE activity.
Libraries were analyzed using dilutions of cultures grown in 96-well plates. Typically, the culture broth from each well was diluted (200 fold) in Assay Buffer (100 mM Tris pH 8.6, 0.005% Tween 80) and transferred to a second microtiter plate (CoStar 9017, Corning, Inc., Corning, N.Y.). Then, 20 μl of the diluted samples were transferred to a third microtiter plate. A standard curve was created by adding 20, 10, 5 or 2.5 μl of the diluted sBBI (SEQ ID NO:13) control culture to empty wells. Then, 80 μL of 50 ng/ml trypsin (bovine pancreatic trypsin, Worthington Biochemical Corp., Lakewood, N.J.) (prepared from a 1 mg/mL stock solution diluted into Assay Buffer) was added to each well of the plate. The reactions were mixed and incubated 15 min at room temperature. After the incubation, 100 μL of 0.5 mg/ml trypsin substrate (succinyl-Ala-Ala-Pro-Arg-para-nitroanilide, Bachem Bioscience, Inc., King of Prussia, Pa.), diluted in Assay Buffer from a 100 mg/ml solution in DMSO, was added to each well, mixed, and the absorbance at 405 nm was monitored for 15 min, with 1 time point recorded every 12 sec using a Spectra Max 250 (Molecular Devices). The data points were used to determine the rate for each reaction. The standard curve was generated by plotting the reaction rate versus the BBI volume and was fitted to a four-parameter equation. All data fitting was done using software supplied by the manufacturer (Molecular Devices Corp., Sunnyvale, Calif.). The activity of each BBIt-AV variant was calculated from the standard curve. Thus, the activities of all modified variant proteins were determined relative to the activity in the sBBI control (BBI-WT) culture.
The concentration of BCE was determined by an activity assay using purified BCE as a standard as described above and by (Vogtentanz et al. 2007). For the analysis of libraries grown in 96-well microtiter plates, 20 μl of culture broth were transferred to each well of a new microtiter plate. A standard curve was created by adding 20, 10, 5 or 2.5 μl of the diluted BBI-WT control culture to these empty wells. Then, 180 μl of the BCE substrate (0.25 μg/ml in Assay Buffer), 4-nitrophenyl β-D-cellobioside (Sigma, St. Louis, Mo.), was added to the plate. The plate was mixed and the absorbance at 405 nm monitored for 15 min, with 1 time point recorded every 12 s using a Spectra Max 250 (Molecular Devices Corp., Sunnyvale, Calif.). The data points were used to determine the rate for each reaction. The standard curve was generated by plotting rate versus culture volume and was fit to a quadratic curve. The BCE concentration in each variant culture was determined relative to the standard control culture. […]

Molecule	BBIt-AV:BCE activity ratio relative to unmodified BBIt-AV
BBIt-AV-F50T: BBIt-AV (SEQ ID NO:187) with single substitution F50T (protein, synthetic BBIt-AV sequence) DDESSKPCCDQCACTKSNPPQCRCSDMRLNSCHSACKSCACYNLYGWTCTCVDITDFCYEPCKPSE	three-fold greater
F50R: BBIt-AV (SEQ ID NO:187) with single substitution F50R (protein, synthetic BBIt-AV sequence) DDESSKPCCDQCACTKSNPPQCRCSDMRLNSCHSACKSCACYNLYGWTCRCVDITDFCYEPCKPSE	best BBIt-AV:BCE-activity ratio

Same assay, conditions: prior to activation

Molecule	initial BBIt-AV:BCE activity ratio relative to unmodified BBIt-AV
BBIt-AV-F50T: BBIt-AV (SEQ ID NO:187) with single substitution F50T (protein, synthetic BBIt-AV sequence) DDESSKPCCDQCACTKSNPPQCRCSDMRLNSCHSACKSCACYNLYGWTCTCVDITDFCYEPCKPSE	comparable to that of the unmodified BBIt-AV parent

Same assay, conditions: single substitution in BBIt-AV, in the presence of reducing agent

Molecule	relative activity of the amino acid substitution (BBI:BCE activity ratio vs BBIt-AV), amino acid present in BBIsb3-AV	relative activity of the amino acid substitution (BBI:BCE activity ratio vs BBIt-AV), amino acid present in BBItc-AV	relative activity of the amino acid substitution (BBI:BCE activity ratio vs BBIt-AV), amino acid present in BBIdb-AV
F50R: BBIt-AV (SEQ ID NO:187) with single substitution F50R (protein, synthetic BBIt-AV sequence) DDESSKPCCDQCACTKSNPPQCRCSDMRLNSCHSACKSCACYNLYGWTCRCVDITDFCYEPCKPSE	R (++) (the greater the number of “+”, the greater the difference.)	R (++) (the greater the number of “+”, the greater the difference.)	–
Q11R: BBIt-AV (SEQ ID NO:187) with single substitution Q11R (protein, synthetic BBIt-AV sequence) DDESSKPCCDRCACTKSNPPQCRCSDMRLNSCHSACKSCACYNLYGWTCFCVDITDFCYEPCKPSE	–	R (+/−)	–
Q11L: BBIt-AV (SEQ ID NO:187) with single substitution Q11L (protein, synthetic BBIt-AV sequence) DDESSKPCCDLCACTKSNPPQCRCSDMRLNSCHSACKSCACYNLYGWTCFCVDITDFCYEPCKPSE	L (+/−)**	–	–
A13M: BBIt-AV (SEQ ID NO:187) with single substitution A13M (protein, synthetic BBIt-AV sequence) DDESSKPCCDQCMCTKSNPPQCRCSDMRLNSCHSACKSCACYNLYGWTCFCVDITDFCYEPCKPSE	M (+)***	–	–
N18I: BBIt-AV (SEQ ID NO:187) with single substitution N18I (protein, synthetic BBIt-AV sequence) DDESSKPCCDQCACTKSIPPQCRCSDMRLNSCHSACKSCACYNLYGWTCFCVDITDFCYEPCKPSE	–	I (+++) (the greater the number of “+”, the greater the difference.)	I (+++) (the greater the number of “+”, the greater the difference.)
N18M: BBIt-AV (SEQ ID NO:187) with single substitution N18M (protein, synthetic BBIt-AV sequence) DDESSKPCCDQCACTKSMPPQCRCSDMRLNSCHSACKSCACYNLYGWTCFCVDITDFCYEPCKPSE	M (+/−)	–	–
R23H: BBIt-AV (SEQ ID NO:187) with single substitution R23H (protein, synthetic BBIt-AV sequence) DDESSKPCCDQCACTKSNPPQCHCSDMRLNSCHSACKSCACYNLYGWTCFCVDITDFCYEPCKPSE	–	H (−)	–
R23S: BBIt-AV (SEQ ID NO:187) with single substitution R23S (protein, synthetic BBIt-AV sequence) DDESSKPCCDQCACTKSNPPQCSCSDMRLNSCHSACKSCACYNLYGWTCFCVDITDFCYEPCKPSE	S (−−−) (the greater the number of “−”, the greater the difference.)	–	–
S25A: BBIt-AV (SEQ ID NO:187) with single substitution S25A (protein, synthetic BBIt-AV sequence) DDESSKPCCDQCACTKSNPPQCRCADMRLNSCHSACKSCACYNLYGWTCFCVDITDFCYEPCKPSE	–	A (+)	–
S25T: BBIt-AV (SEQ ID NO:187) with single substitution S25T (protein, synthetic BBIt-AV sequence) DDESSKPCCDQCACTKSNPPQCRCTDMRLNSCHSACKSCACYNLYGWTCFCVDITDFCYEPCKPSE	–	–	T (+/−)
S25E: BBIt-AV (SEQ ID NO:187) with single substitution S25E (protein, synthetic BBIt-AV sequence) DDESSKPCCDQCACTKSNPPQCRCEDMRLNSCHSACKSCACYNLYGWTCFCVDITDFCYEPCKPSE	E (−−−) (the greater the number of “−”, the greater the difference.)	–	–
M27I: BBIt-AV (SEQ ID NO:187) with single substitution M27I (protein, synthetic BBIt-AV sequence) DDESSKPCCDQCACTKSNPPQCRCSDIRLNSCHSACKSCACYNLYGWTCFCVDITDFCYEPCKPSE	I (+/−)	I (+/−)	–
M27V: BBIt-AV (SEQ ID NO:187) with single substitution M27V (protein, synthetic BBIt-AV sequence) DDESSKPCCDQCACTKSNPPQCRCSDVRLNSCHSACKSCACYNLYGWTCFCVDITDFCYEPCKPSE	–	–	V (+/−)
A35D: BBIt-AV (SEQ ID NO:187) with single substitution A35D (protein, synthetic BBIt-AV sequence) DDESSKPCCDQCACTKSNPPQCRCSDMRLNSCHSDCKSCACYNLYGWTCFCVDITDFCYEPCKPSE	D (+/−)	–	–
K37E: BBIt-AV (SEQ ID NO:187) with single substitution K37E (protein, synthetic BBIt-AV sequence) DDESSKPCCDQCACTKSNPPQCRCSDMRLNSCHSACESCACYNLYGWTCFCVDITDFCYEPCKPSE	–	E (+/−)	–
